Source: a protein production outcome set (Wang et al. 2014)

assay: label from the status in PepcDB records

Question: Which protein production does the source give for “MRRNTALTRIMASGVAAIMLCAGGTFTVNAAEEEPVKADVSVKAIQGLSDDFIGGMDVSSMLSLEESGVTFKNANGEVEDLFTLLKESGVNYVRLRVWNDPFTADGQGYGGGNVNADRALTMAKRATAAGLKVLVDFHYSDFWADPSKQQVPKAWKSFEGDADKTADTVYDYTKQTLTTFKQAGVDVGMVQVGNETTAKIAGISGWDGMSKVFSAGSKAIREVLPEAKVVIHFTNPEKAGTYATYAKQLSNHNVDYDVFASSYYPFWHGTTENLTSVLKNVASTYKKDVMVAETSWAYTLDDGDDDSNTVPSKVTADNLKKYDISPQGQADEIRAVAEAVNNIGDNDGDGENDGLGVFYWEPAWVPVGTGGKDNAELVDTWNKYGGGWATEAAGEYDPNDAGLYWGGSGVDNQALFDFDGKALASLPTFKYIHTGAVTDHVFTKIDPVEITATDSDSIDAIKAQLPSEVAAHYQDGVDETETVTWQSAALDWIRGAGTYTITGTTNAGHDVTVTVTVTATPAKDYVTDGSFENAENDKNWTIAGTGASITEDSGNAADGKRALKFWASDAYSFSATQTITGLEPGEYVLTAMSQGAAADNAAITDGVALSATTGGKTTSDALELNGWVKFDTATVPVTVGADGTATITITGNLPADAWGNVDKVSLVKKTETPVKPSTENLDKAVAEAGKINRDEYTNESLAKLDQALAAADVLLAGSTYTEQDVNDVIKLVADAIAGLAQKEVSSLTVTPSKTTYQVGDAIDADHDLKVVGNYSAGMGNVTLSADQFTLDYDFSAPADAAKVTVTLKSNPNVTETYTVAVTARAEGGSGNGSDGAGNGGATINPDTGEGDKTNGANGDKITGVLSNTGSAVTAVGLAVVVLGVAGGVSLALRRKRS” here?
Answer: Its protein production is “failed”.

Question: For “MRRREGHGTDSEMGQGPVRESQSSDPPALQFRISEYKPLNMAGVEQPPSPELRQEGVTEYEDGGAPAGDGEAGPQQAEDHPQNPPEDPNQDPPEDDSTCQCQACGPHQAAGPDLGSSNDGCPQLFQERSVIVENSSGSTSASELLKPMKKRKRREYQSPSEEESEPEAMEKQEEGKDPEGQPTASTPESEEWSSSQPATGEKKECWSWESYLEEQKAITAPVSLFQDSQAVTHNKNGFKLGMKLEGIDPQHPSMYFILTVAEVCGYRLRLHFDGYSECHDFWVNANSPDIHPAGWFEKTGHKLQPPKGYKEEEFSWSQYLRSTRAQAAPKHLFVSQSHSPPPLGFQVGMKLEAVDRMNPSLVCVASVTDVVDSRFLVHFDNWDDTYDYWCDPSSPYIHPVGWCQKQGKPLTPPQDYPDPDNFCWEKYLEETGASAVPTWAFKVRPPHSFLVNMKLEAVDRRNPALIRVASVEDVEDHRIKIHFDGWSHGYDFWIDADHPDIHPAGWCSKTGHPLQPPLGPREPSSASPGGCPPLSYRSLPHTRTSKYSFHHRKCPTPGCDGSGHVTGKFTAHHCLSGCPLAERNQSRLKAELSDSEASARKKNLSGFSPRKKPRHHGRIGRPPKYRKIPQEDFQTLTPDVVHQSLFMSALSAHPDRSLSVCWEQHCKLLPGVAGISASTVAKWTIDEVFGFVQTLTGCEDQARLFKDEARIVRVTHVSGKTLVWTVAQLGDLVCSDHLQEGKGILETGVHSLLCSLPTHLLAKLSFASDSQY”, which protein production is on record?
Answer: The protein production was “failed”.

Question: Which protein production does the source give for “MRRSRRAALAACLILAIAATPGAVLAQTVDELYASAVKARQARHFDEAVDLLRRALALKPDNADALVQLGFAELGRNDLAAARDAFSKALSLAPTYQDASFGLAEIEFRSGNLDAALPLAESVARAQPGNTDAAALVENIRKAMQAAGGEARKASVAAPRAKPRPDPVAGLMEQGRRLRTAGKLPEAEKVYRRALGLAPKNTDILVALGLIVGSSQRFDEAGHFFDRALAIKPGLLDARIGKIRMAIWQGDVPSARALVDDVLASSPDNVEALDLDAKVALLEADYTRAGQSFQRVLAIDPRNAEALVGIGDVRRAQGDDDAARQAYREALAIEPGSSDIEQRLAVPPPRKWRLDLGTEVSDLTNGLSDWTDSSAGLAYRLSPRTTISGRTRVATRFGRTDVQIEGRIDEAFSPAFSAYAFAAATPDADFLARYSIGAGASLQVMAAAKAFGPLSLNIDTRYDNFTNTNVTSVSPWVQGYIFDGRLGLSARWVHAADDIGTRADGYVLRVDLAMAQRFNLFGGYADAPEISDGTLVPTRTVFGGISWDVNDPLTLRASIAHEQRPTFDRSIFGLGLTARF” here?
Answer: The protein production was “failed”.

Question: For “MRRTRRPRFVLMNKMDDLNLHYRFLNWRRRIREIREVRAFRYQERFKHILVDGDTLSYHGNSGEVGCYVASRPLTKDSNYFEVSIVDSGVRGTIAVGLVPQYYSLDHQPGWLPDSVAYHADDGKLYNGRAKGRQFGSKCNSGDRIGCGIEPVSFDVQTAQIFFTKNGKRVGSTIMPMSPDGLFPAVGMHSLGEEVRLHLNAELGREDDSVMMVDSYEDEWGRLHDVRVCGTLLEYLGKGKSIVDVGLAQARHPLSTRSHYFEVEIVDPGEKCYIALGLARKDYPKNRHPGWSRGSVAYHADDGKIFHGSGVGDPFGPRCYKGDIMGCGIMFPRDYILDSEGDSDDSCDTVILSPTARAVRNVRNVMYLHQEGEEEEEEEEEEEDGEEIEPEHEGRKVVVFFTRNGKIIGKKDAVVPSGGFFPTIGMLSCGEKVKVDLHPLSG”, which protein production is on record?
Answer: The protein production was “not failed”.

Question: For “MRRYRTCDNPPPSNGGRACGGPDSQIQRCNTDMCPVDGSWGSWHSWSQCSASCGGGEKTRKRLCDHPVPVKGGRPCPGDTTQVTRCNVQACPGGPQRARGSVIGNINDVEFGIAFLNATITDSPNSDTRIIRAKITNVPRSLGSAMRKIVSILNPIYWTTAKEIGEAVNGFTLTNAVFKRETQVEFATGEILQMSHIARGLDSDGSLLLDIVVSGYVLQLQSPAEVTVKDYTEDYIQTGPGQLYAYSTRLFTIDGISIPYTWNHTVFYDQAQGRMPFLVETLHASSVESDYNQIEETLGFKIHASISKGDRSNQCPSGFTLDSVGPFCADEDECAAGNPCSHSCHNAMGTYYCSCPKGLTIAADGRTCQDIDECALGRHTCHAGQDCDNTIGSYRCVVRCGSGFRRTSDGLSCQDINECQESSPCHQRCFNAIGSFHCGCEPGYQLKGRKCMDVNECRQNVCRPDQHCKNTRGGYKCIDLCPNGMTKAENGTCIDIDECKDGTHQCRYNQICENTRGSYRCVCPRGYRSQGVGRPCMDIDECENTDACQHECKNTFGSYQCICPPGYQLTHNGKTCQDIDECLEQNVHCGPNRMCFNMRGSYQCIDTPCPPNYQRDPVSGFCLKNCPPNDLECALSPYALEYKLVSLPFGIATNQDLIRLVAYTQDGVMHPRTTFLMVDEEQTVPFALRDENLKGVVYTTRPLREAETYRMRVRASSYSANGTIEYQTTFIVYIAVSAYPY”, which protein production is on record?
Answer: Its protein production is “failed”.

Question: For “MRSATDLLDELNAVDESARIEAKRASDMGKSVMETVIAFANEPGLDGGYLLLGVDWAINDKGDTVYRPVGLPDPDKVQRDLASQCASMLNVALRPEMQLEQVGGKTLLVVYVPEADVTHKPIYKKATGLPGGAYRRIGSSDQRCVDEDLWVLRGLEHHHHHH”, which protein production is on record?
Answer: The protein production was “not failed”.

Question: For “MRSGRPLYWIFLLLAFSLLAVLVYVCVAVIPDLRNHPNARRSLKRVRSTLDPQREQRDASRRLDVADTPENRRQLAETLLARGDYAQAAEHYQGALRGLYRDDPHLMLGLAKAQFGLGQPQQTRQTLDALIAANPSFRSHDGHLLYARAVEGSGDTDAALHEYDTLAQGYPGEEARVRYAQLLQRIARNDQARAVYEQVLRHAAASPKHYQREQRAWVDLARKGLRELDTGA”, which protein production is on record?
Answer: The protein production was “failed”.

Question: For “MRSLMATRAKPNKKQNASARGKKPAWLGGIGLRQVRMFCGLVLFTYLLSHFLNHALGNISPEALHAGVLWHLEIWQFLPVAILFYGSVTVHAGLGLWALYQRRQFRWKTLEPLQLVLGLSVPLMIYSHVIVMRLGNVLYDQDRLYPQVLYNYFVASPSYRAWLMVAVMLIAWTHGCIGLYVWLRIKPAFRRAMPWLLAAAVLIPTLALLGFYQGGRTVAREAASPQWQANNLAPANLGTPEQQQTLEAIGNGFLIFYLGLIALALIARAVRAIIERRGGMVRLTYDGERSIRVPKGLTVLEATQRHNIPHASACGGRARCSTCRIRVLGDPATLPPPSPREAFVLASIGTGDDPSIRLACQLKPTQDLTFLPVFPPRNVAAARKAARAARIGEERYLVSMFVDMRGSTKLAESRLPFDTVFIVNRFLGAVSRSVIACGGQPNQFVGDGMLALFGLAETPREACRNAVRAAAAIGAAIDELNNFLGHDLPEPIRFGIGIHSGEVVVGEIGYRDHMVFTALGDSVNVASRLQDMTKSLGCETLLSDELRATAGLSEQALPTLELEIRGRTEPMLVCVVERAGDLVAVLNEDLVLA”, which protein production is on record?
Answer: The protein production was “failed”.

Question: With “MRSRGEPLPAGGRMKTLAFVALALAGISWGLGFPTGKLILRETDAAHMVLLRFLVAAVAAAPFALRRPEVRALFRSPIVLLAGALYGVAFLVQFEGLAHVSVTVAALLVGAMPALIAVSARVLGEKVSRLSWAGVAAATLGAALIAGKPDGASSPLGVALSIAALFLFLTWLLVLRRAPPAPNPMAIPAVSIIVAALVVLPIALIMHGPPKLALSAPAWTAIVAQGVLATLLATAAWQYGAAQVGAASAGVFINIEPLMGAACGVLLFGDHLTAALFAGGLLIIGGSFAVVMGERQAKPGEIQATVAPTP” as the sequence, how does the protein production read?
Answer: Its protein production is “failed”.

Question: With “MRTAVAVPYHSGIRLPLLFEKNARMTETIDTNVFNLAPVAMWIEDFSEVKSQFDIWRAEGIEDIRAFLLEDLSRVAACSQKIRVIEVNAKTLELFEARDQAHLVDNLHRIFRDDMLESHVNELSELWAGRTEFTSNAVNYSIGGRRLDIQLRGTVIPGHEDTLGRLLLTTEDVTEREEARRKELLNRRYAEGMFKHSPVSLWVEDFSRVRRLIEEVRERGIVDFRVFMDVHPEFVRQCMSEIRVIDVNQATLDLFCAADRQVLLQRLGDIFRGEMEKPFREQLIELWNGNLTHHREVVNYALDGSERHVLLHFSVFPGHERDWSLVQVALTDITARKKAEAYLEYLGKHDVLTKLHNRAFYSDELNRLERSALRPVSAIVIDLNGLKEANDKLGHDAGDALLRRVGEVLNGVVTAPNHAARIGGDEFAILLPGADKQVAAAMVDTVYELLKINNQFYSSAPLSLSLGVATTEAGETMESLVRRADMNMYEQKNAYYAALRNRSADNNDTTKGGSQSETTSLKRLF” as the sequence, how does the protein production read?
Answer: Its protein production is “failed”.

Question: With “MRTEPQPLHLPVFRAILASMGEGIIFADADDRIRYINAAAEDIRGIIAGNYLGRSIVSIHSPASEGRIRRLIAGLKGGDIPFSTRVIHVREKIFENSYYPIRNENGIYEGTLLISRDITEKELLKEENNSLREQVRADFACGGMIGKSHAMEPVFHMIRATAALDSTILISGESGTGKELVACAIHQMSPRHKNPFVKVNCAALPETLLESELFGHERGAFTGAVRERKGKFEQAHLGTIFLDEIGEMPLAAQAKLLRVIQGKTLERIGGNREIAVDVRIIAATNKDLRREVERGAFREDLFYRLNVIPIHLPPLRERREDILPLAEHFLSVYAERMRKPVHCIAPDARKALLDYDYPGNVRELENAIERGVALSMGETITLADLAPYFVTGASAAPAGAALPKEPPTATLSRAVSVAEQEAIREALQTTGNRKGVAAKLLGISRKTLWEKLKQMERT” as the sequence, how does the protein production read?
Answer: Its protein production is “failed”.

Question: With “MRTIAFALALLATPVAAELEAARDLMDAGRFDEAYAALWPAARSGNAEAEELIGVIYAMGLGRPRDDQRAFEWYLRAAMKGHPGAQSGVGWYYEVGRGLPAPDLMRAYMWYTLSAIGGDPDAAISLEEVAKKMTAEEINKAHVLVADYKVWMYPFR” as the sequence, how does the protein production read?
Answer: The protein production was “failed”.

Question: With “MRTLAVISAGLSTPSSTRQIADSISEAVTAAVSARGEALSVSTIELSELIPDLMTAMTTRVHTTKLEEITSALSASDGLVVATPVFKASYTGLFKMFFDILDTDALTGMPTIIAATAGSARHSLVLDYALRPLLSYMRAVVVPTGVFAATEDFGGPEGAEFNKRIARAAGELASLIVEESGNVGLEHHHHHH” as the sequence, how does the protein production read?
Answer: Its protein production is “failed”.
